Assay results taken from patent publication US6294333, “Fluorescent intensity assay for protein or peptide binding to nucleic acids” (Ingeneus Corp.).

How the values were obtained:
c-JUN full length = c-JUN full length (Homo sapiens, UniProt P05412 P05412:1-331); experiment: fluorescence quenching; no decrease in NaCl or KCl, 21 C; settings: tags: Promega; 340 aa; chain copies: 2 (stated homodimer); label: 5'-fluorescein both strands
Procedure: (§1) The c-JUN :DNA binding reaction mixture (30 μl) contained the following: 9.25 mM HEPES, pH 7.9, 2.23 mM MgCl_2, 0.03 mM EDTA, 50 mM NaCl, 5.0 mM DTT, 3.75% (v/v) glycerol, 0.15 μg/μl bovine serum albumin (BSA), 0–2.0 μg pure c-JUN protein (Promega, Madison, Wis.) or 0–400 ng pure c-JUN peptide, and 0.075 pmole 5'-fluorescein labeled dsDNA oligonucleotide. When full-length c-JUN was used, 3 ng/μl poly(dI)-poly(dC) was included in the reaction mix, and added before the addition of protein and fluorescein-labeled DNA. The examples in FIGS. 1B and 1D contained 50 mM KCl in lieu of 50 mM NaCl. Wild-type and mutant c-JUN DNA-binding domain peptides were generously supplied by Dr. Dirk Bohmann (European Molecular Biology Laboratory, Heidelberg, Germany). The reaction mixtures were incubated at 21° C. for 30 minutes, placed into a quartz cuvette, irradiated with an argon ion laser beam having a wavelength of 488 nm and monitored for fluorescent emission.
These mutant DNA binding studies confirm the specificity of both the c-JUN:wild-type DNA binding conditions and the laser detection method.

[1] = target: T1, c-JUN mutant 14 DNA-binding domain peptide (K277I, C278D) (Homo sapiens, UniProt P05412 SEQ:1-132); experiment: fluorescence quenching; no decrease at 200-400 ng; settings: chain copies: 2 (inferred); label: 5'-fluorescein both strands
T1 chain: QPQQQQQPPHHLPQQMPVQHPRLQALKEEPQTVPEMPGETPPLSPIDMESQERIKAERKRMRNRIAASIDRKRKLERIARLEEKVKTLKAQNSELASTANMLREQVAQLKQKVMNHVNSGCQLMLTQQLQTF
Procedure: as §1
The specificity of the laser binding assay was further tested by reacting a mutant c-JUN DNA-binding domain peptide with wild-type or mutant DNA. Specific mutations in the basic domain of c-JUN abolish DNA binding without affecting dimerization, whereas specific mutations in the leucine zipper prevent both dimerization and DNA binding.

[2] = target: c-JUN DNA-binding domain peptide (wild-type) (Homo sapiens, UniProt P05412 SEQ:1-132); experiment: fluorescence quenching; minor increase in intensity at 20-200 ng; settings: chain copies: 2 (inferred); label: 5'-fluorescein both strands
Procedure: as §1

Sp1 full length = Sp1 full length (UniProt P08047 P08047:2-785); experiment: fluorescence quenching; 200 ng Sp1, no decrease; settings: tags: Promega; label: 5'-fluorescein both strands
Procedure: The Sp1:DNA binding reaction mixture (30 µl) contained the following: 25 mM HEPES, pH 7.8, 100mM KCl, 100 µM ZnSO_4, 1 mM DTT, 20% (v/v) glycerol, 0.05 µg/µl BSA, 0–200 ng pure Sp1 protein (Promega) and 0.1 pmole 5'-fluorescein labeled dsDNA oligonucleotide. The reaction mixes were incubated at 0° C. for […], placed into a quartz cuvette, irradiated with an argon ion laser beam having a wavelength of 488 nm and monitored for fluorescent emission.
When 200 ng Sp1 was reacted with 0.1 pmole mutant JD13F/14F, no decrease in fluorescent intensity was observed (FIG. 4B), indicating non-binding of protein to the mutated DNA sequence. These studies confirmed the specificity of the laser detection assay for a completely different class of DNA-binding proteins.

Sequence of Sp1 full length (P08047 2-785, one chain of several): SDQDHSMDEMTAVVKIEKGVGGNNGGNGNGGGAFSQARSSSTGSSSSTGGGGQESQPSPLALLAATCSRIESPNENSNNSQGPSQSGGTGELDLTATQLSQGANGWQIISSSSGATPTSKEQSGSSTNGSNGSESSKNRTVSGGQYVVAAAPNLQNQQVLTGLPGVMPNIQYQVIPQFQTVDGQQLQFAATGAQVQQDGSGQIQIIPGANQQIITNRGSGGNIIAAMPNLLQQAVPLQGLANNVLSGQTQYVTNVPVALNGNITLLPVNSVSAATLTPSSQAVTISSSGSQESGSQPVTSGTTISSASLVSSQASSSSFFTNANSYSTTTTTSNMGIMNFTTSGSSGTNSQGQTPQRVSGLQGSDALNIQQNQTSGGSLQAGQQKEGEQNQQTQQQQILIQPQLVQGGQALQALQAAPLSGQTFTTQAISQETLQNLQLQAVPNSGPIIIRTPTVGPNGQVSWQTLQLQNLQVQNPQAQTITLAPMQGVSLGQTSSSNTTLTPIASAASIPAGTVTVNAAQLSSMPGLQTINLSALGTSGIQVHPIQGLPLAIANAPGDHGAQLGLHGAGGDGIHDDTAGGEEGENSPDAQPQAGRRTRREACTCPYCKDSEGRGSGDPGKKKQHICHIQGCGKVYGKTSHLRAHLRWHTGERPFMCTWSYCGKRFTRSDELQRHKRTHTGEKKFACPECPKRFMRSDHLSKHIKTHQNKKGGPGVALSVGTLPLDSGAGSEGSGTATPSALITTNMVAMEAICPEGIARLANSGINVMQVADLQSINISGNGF

Binder | binding result (c-JUN full length) | binding result [1] | binding result [2] | binding result (Sp1 full length)
JD3F/4F (dsDNA) DNA 1: GTGTCTTACTCATGCTT DNA 2: AAGCATGAGTAAGACAC | no binding | no binding | no binding | –
JD1F/2F (dsDNA) DNA 1: GTGTCTGACTCATGCTT DNA 2: AAGCATGAGTCAGACAC | – | no binding | – | –
JD13F/14F (dsDNA) DNA 1: CCGGCCTAAATAGGGCTTTT DNA 2: AAAAGCCCTATTTAGGCCGG | – | – | – | no binding
